Measurements from the supplement of paper PMC9732359.
± gives the uncertainty stated by the source.

test: protein stability index of a GFP-peptide fusion (yeast GPS) (PSI 1-4); higher = more stable; sorted into four equal gates, so the index is relative within each strain; conditions: doa10∆
Summary of the method: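 Tiled yeast protein peptides of 17 residues were each joined downstream of GFP, on plasmids that also express Cherry. The pooled library was maintained in yeast, and mid-log cultures in leucine-free medium were sorted into four equal gates on the GFP/Cherry ratio. Plasmids from every gate were amplified by PCR and sequenced on Illumina, with barcodes linking reads to strains. The protein stability index of a peptide is its gate-number-weighted read frequency summed over the gates.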

| Sequence | protein stability index |
| --- | --- |
| KEEVCQGMEGTVDLALF [YMR129W/POM152] | 3.45 ± 0.21 |
| KEFDETIFNLPKNKLVP [FAS1] | 3.5 ± 0.17 |

same assay, conditions: pdr5∆

| Sequence | protein stability index |
| --- | --- |
| ILEDTATMSVFLQRIDF [RRI2] | 2.53 ± 0.05 |
| ILEDYCYFRDFEYCRID [ISW2] | 1.35 ± 0.077 |
| ILKRDFELVSDLSYIEF [ECM29] | 2.67 ± 0.078 |
| ILLTSISRERDLFTHLW [SRP68] | 2.71 ± 0.18 |
| ILRMGAFRTIESKSDDN [RRI1] | 2.8 ± 0.11 |
| ILSLEQSSRVVSLSQLL [YCS4] | 1.5 ± 0.05 |
| ILVMETSEEQTKFLAKN [SWP82] | 2.91 ± 0.11 |
| IMGFISYHNGNLKGRPY [FAS2] | 2.95 ± 0.11 |
| IMSTEAHVNKVTEETTK [SIR4] | 2.89 ± 0.059 |
| INAKNIAFASNYGIVEL [RRP43] | 1.49 ± 0.056 |
| INDPTNKEYTLVHGIFG [SIN4] | 2.21 ± 0.091 |
| INDRNDRAIRKTCQWYS [DIS3] | 3.09 ± 0.097 |
| INGEDPANNHQLGLQTV [SMX2] | 2.94 ± 0.1 |
| INLNVDDDILIIRPILG [SRB4] | 3.07 ± 0.1 |
| INNPVNLTIHFGGEKGK [FAS1] | 2.8 ± 0.097 |
| INSIDTTESSDLKEGLQ [GRR1] | 2.6 ± 0.046 |
| INSPMPQQAQMQQAQFQ [SNF2] | 2.98 ± 0.089 |
| INSSNEALVQAFAFCIP [YCG1] | 2.31 ± 0.051 |
| INYHQYISKAQNDQWSI [SSN2] | 2.83 ± 0.053 |
| INYLLTLAITTVTNSKF [RPN2] | 2.91 ± 0.078 |
| INYQVDSKLLPKNIEPP [SWI3] | 2.81 ± 0.1 |
| IPGLSAGVNNDNTKESK [RTT102] | 3.52 ± 0.083 |
| IPNIPPNINTWQQVTAL [GAL11] | 3.15 ± 0.1 |
| IPNQEVLQYSDWESDLH [YDL116W/NUP84] | 2 ± 0.056 |
| IPNRRFTLWWSPTINRA [PRP8] | 2.28 ± 0.065 |
| IPSPLSSTKPPGSVNSA [NUT1] | 2.84 ± 0.058 |

| Sequence | protein stability index |
| --- | --- |
| IPTTKNLRLLVEENRVR [DLS1] | 3.08 ± 0.1 |
| IPVGLMAQENSMERKVQ [MCD1] | 3.38 ± 0.29 |
| IQEIKESVELPLTHPEL [RPT2] | 2.97 ± 0.069 |
| IQEQRVKDKQSKVSDDS [RPN8] | 2.79 ± 0.13 |
| IQGISKMYSDDTLKDIS [BRN1] | 3.35 ± 0.15 |
| IQIDEETENSESIASSN [MCD1] | 2.73 ± 0.072 |
| IQPKITELKKKLDDLEN [SMC1] | 2.79 ± 0.13 |
| IQSKRLRNKIAGYTTHL [RPS17A] | 3.41 ± 0.088 |
| IRAIRKVISEILTKEVQ [RPS1A] | 1.89 ± 0.012 |
| IREIDVAGGKKALAIFV [RPS7A] | 1.75 ± 0.11 |
| IRGSDQAIPKFQMNCYA [RPN2] | 1.62 ± 0.066 |
| IRNINVQDALLTNQLYK [SNF2] | 2.67 ± 0.064 |
| IRNLTVFTMKELAQYMK [RGR1] | 2.78 ± 0.22 |
| IRNVLVTVDQYVNVAIS [SSN2] | 1.25 ± 0.058 |
| IRSSSVSLVAEATSNTN [MED4] | 1.63 ± 0.061 |
| IRVAETRGGASALIENN [YJL039C/NUP192] | 2.46 ± 0.089 |
| ISDIPYVISLSYTDAQD [YMR129W/POM152] | 2.41 ± 0.068 |
| ISFAAFILADAGLEITS [RPP1B] | 1.8 ± 0.055 |
| ISLHENKLSGILADEMG [ISW2] | 2.16 ± 0.069 |
| ISLRNNHKIIARVKAFD [SMD2] | 2.02 ± 0.038 |
| ISNINIPISSETTIDDL [SMC1] | 2.69 ± 0.17 |
| ISNNLALVFAALEHLKN [SRP68] | 1.8 ± 0.041 |
| ISPLMKSQYNMVLRNVM [SRB8] | 2.12 ± 0.12 |
| ISSLIGGFEYFLQPLLL [NUT1] | 1.27 ± 0.08 |
| ITGNKIMRILKSNGLAP [RPS13] | 3.32 ± 0.18 |
| ITHQGANSESGHYQAFI [UBP6] | 2.95 ± 0.08 |

| Sequence | protein stability index |
| --- | --- |
| ITHYAVRGGNIEIMGIL [RRI1] | 2.54 ± 0.097 |
| ITIDSVVDANGCVNSLI [YMR129W/POM152] | 2.91 ± 0.09 |
| ITLHPSFFGPRMKQYLK [RPB7] | 2.47 ± 0.12 |
| ITSNHKSSVPGSAELRN [RPN3] | 3.25 ± 0.074 |
| IVDPTAEQLKISLSVHT [RRP46] | 1.81 ± 0.044 |
| IVFVHSRKETSRTATWL [BRR2] | 2.67 ± 0.12 |
| IVIDVDYNKKQDRIQDV [MED1] | 3.13 ± 0.091 |
| IVKTSSGNEMPPQDAEG [RPS19A] | 3.46 ± 0.29 |
| IVNGQTFSYVDSSLQPE [YMR129W/POM152] | 2.67 ± 0.059 |
| IVNVLSKCLNLISDSNI [SWI3] | 1.77 ± 0.038 |
| IVPLHSPFLMGHPMTKS [SEC65] | 2.57 ± 0.07 |
| IVSKEYEKNFEATLESK [ESC2] | 3.08 ± 0.17 |
| IVVMDCFNLPVVGTETR [RRI1] | 2.66 ± 0.12 |
| IWDSQKFFIMIVKGNII [POP4] | 1.44 ± 0.096 |
| IYDDWLDRISSYTAFSR [PRP8] | 1.75 ± 0.044 |
| IYKPLLFEIVSNADTNQ [SRB8] | 2.11 ± 0.066 |
| IYKSIFNVVDVGVDQLS [YJL039C/NUP192] | 2.92 ± 0.047 |
| IYNKMIGVLNNSSESDE [RPN13] | 3.12 ± 0.12 |
| IYQHLASHNEKDQDSQI [SRP72] | 2.45 ± 0.074 |
| IYQVPEKDLEHWLQLAK [POP1] | 3.13 ± 0.13 |
| IYRDRSTFTKHLIKCFF [ITC1] | 1.68 ± 0.038 |
| IYRYKYKVMHQIRACKD [PRP8] | 2.14 ± 0.086 |
| IYSPEGLRLDGRRWNEL [SKI6] | 1.77 ± 0.19 |
| KAAFLGSEVRLRDDTLP [COR1] | 2.98 ± 0.057 |
| KAALERLKVFEGIPPPY [RPL16A] | 2.84 ± 0.12 |
| KAELPQWYTLQSQLNVT [MED8] | 2.9 ± 0.047 |

| Sequence | protein stability index |
| --- | --- |
| KAHPNFPIALQWTGGRG [FAS1] | 2.64 ± 0.12 |
| KAKIIPGNGKHASENIS [SIR4] | 3.04 ± 0.13 |
| KAKRQINSGTNSANGSS [SSN3] | 2.68 ± 0.058 |
| KALILAPTRELVQQIQK [PRP28] | 2.82 ± 0.055 |
| KANISLETLEHNGAPHH [RPO21] | 3.05 ± 0.15 |
| KAPEAEQVLSAAATFPI [RPL13A] | 2.76 ± 0.075 |
| KASELKLALGIALEGYR [RPN2] | 2.28 ± 0.18 |
| KASTISRGAVSGQKAGL [RPL2A] | 2.36 ± 0.055 |
| KASVLEISPQDSIASVL [GAL11] | 3.39 ± 0.066 |
| KDFLKAVDKVISGYKKF [RPT1] | 3.38 ± 0.09 |
| KDHLLLEEEFVSNSEIL [RPT2] | 2.83 ± 0.065 |
| KDIAKRQFKEILTVKEE [RRP40] | 2.4 ± 0.048 |
| KDIIDPKLTSIFERMIE [RPN2] | 2.99 ± 0.11 |
| KDLEIRKLEISSRFKHR [GAL11] | 2.76 ± 0.081 |
| KDLVTENAYDNPLADAE [PRE4] | 3.34 ± 0.12 |
| KDNECSSFEENNDLESV [RRI2] | 3.12 ± 0.16 |
| KDQRATTPYMTKYERAR [RPO26] | 3.01 ± 0.051 |
| KDRFDIDEKSQFVETIV [RPN2] | 2.48 ± 0.069 |
| KDSVTECSKDMKEDGLS [SIR4] | 3.45 ± 0.066 |
| KDSYINANTIETAKMIE [FAS2] | 3.07 ± 0.044 |
| KDWTDTFVYILEKLIFD [SRB8] | 2.72 ± 0.058 |
| KDYEAKTKAMSLSIEEN [POP1] | 2.55 ± 0.089 |
| KDYHTLANNVESKLRDD [RPS18A] | 3.48 ± 0.15 |
